# Results as given in PMC8268162, “A Master Regulator BrpR Coordinates the Expression of Multiple Loci for Robust Biofilm and Rugose Colony Development in Vibrio vulnificus”.
# B1: BRPBwt (dsDNA)
# DNA 1: GTTTGCAATGTCTCATTGGTGCGACGAATGCTTTGGCG
# DNA 2: CGCCAAAGCATTCGTCGCACCAATGAGACATTGCAAAC
# Target: T1, BrpR-His6
# T1 chain: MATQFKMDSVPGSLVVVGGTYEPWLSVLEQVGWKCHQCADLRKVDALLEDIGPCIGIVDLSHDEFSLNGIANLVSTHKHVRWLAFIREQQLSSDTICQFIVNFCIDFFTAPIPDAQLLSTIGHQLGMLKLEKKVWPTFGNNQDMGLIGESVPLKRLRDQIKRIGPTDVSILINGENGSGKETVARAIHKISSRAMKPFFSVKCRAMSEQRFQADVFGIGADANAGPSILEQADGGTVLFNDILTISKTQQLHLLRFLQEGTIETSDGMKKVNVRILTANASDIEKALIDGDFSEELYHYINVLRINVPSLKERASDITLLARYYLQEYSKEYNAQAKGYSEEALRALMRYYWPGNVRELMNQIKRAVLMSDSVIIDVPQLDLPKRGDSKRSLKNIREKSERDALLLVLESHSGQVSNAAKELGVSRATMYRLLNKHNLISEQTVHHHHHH
# Test: EMSA; 50 uM c-di-GMP; 40 mM Tris-Cl pH 7.9, 100 mM KCl, 10 mM MgCl2, 1 mM DTT, 0.1 mM EDTA, 0.1 ug/ul BSA, 0.1 ug poly(dI-dC) in 20 ul, 25 min at 30 C; EMSA DNA 5 nM, footprinting DNA 40 nM
# Conditions: protein: recombinant; tags: C-terminal His6; label: 6-FAM on reverse strand; blunt
binder,measurement,value
B1,binding result,binds
